Literature values as cited in article PMC2786309 (Bioconjugate chemistry, 2009).

Legend:
[1] = system: B16/F1 melanoma-bearing C57 mice; settings: mouse, in vivo
[2] = system: MC1 receptor present on melanoma cells; settings: statement in method text, no reference given

Question: Which Tumor uptake ([1]; 4 h) does the source give for “^111In-DOTA-[β-Ala^3, Nle^4, Asp^5, D-Phe^7, Lys^10]-α-MSH3-10 [^111In-DOTA-MSHoct]” here?
Answer: 4.31 ± 0.30 % ID/g

Question: Which “Affinity for the MC1 receptor” value [2] does the source give for NDP-MSH here?
Answer: picomolar affinity

Question: Which “Renal uptake reduction compared to 111In-DOTA-CycMSH” value [1] does the source give for “^111In-DOTA-Gly-Glu-c[Lys-Nle-Glu-His-DPhe-Arg-Trp-Gly-Arg-Pro-Val-Asp] (FRWGRPVD; not fully specified; 111In-DOTA, Gly-Glu-Lys-Nle-Glu-His N-term, cyclic; printed: Phe-Arg-Trp-Gly-Arg-Pro-Val-Asp) [^111In-DOTA-GlyGlu-CycMSH]” here?
Answer: 44%

Question: What about the Melanoma uptake ([1]; 2 h) of the same substance?
Answer: 10.40 ± 1.40 % ID/g
